Experimental findings from the nanobody polyreactivity screen of Harvey et al. (2022) are described below.

The series in a line: yeast display, Sf9 membrane polyspecificity reagent, FACS + sequencing; frameworks hold sequencing errors. Summed up:
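Galactose induction of a Saccharomyces cerevisiae BJ5465 synthetic nanobody display library ran 36–48 hours. The cells were then stained for 1 hour at 4 °C with 10% biotinylated, detergent-solubilized Sf9 membrane reagent, pulled down on streptavidin microbeads and FACS-sorted into low and high (top ~1%) gates on expression and reagent-binding fluorescence. Labels for polyreactivity follow the gate of origin.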
“QVQLVDSGGGLVQAGGSLRLSCAASGSTFRLYAMGWYRQAPGKERALVAAITRGGITYYADSVKGRFTISRDNAKNTVYFQMNSLKPEDTAVYYCAATTFGPYALYPRYYYWGQGTQVTVSS”: the “polyreactivity (PSR sort gate)” value is “high polyreactivity”.

As to “QVQLVDSGGGLVQAGGSLRLSCAASGSTFRRNAMGWYRQAPGKERELVAAITSSGGGSTYYADSVKGRFTISRDNAKNSVYLQMNSLKPEDSAVYYCAKDFWYRSYDYWGQGTQVTVSS”, the “polyreactivity (PSR sort gate)” value is listed as “low polyreactivity”.

For “QVQLVDSGGGLVQAGGSLRLSCAASGSTFTYNSMGGYRQAPGKERELVAAITWSSDITYYADSVKGRFTISRDNAKNTVYLQMNSLIAEDTAVYYCAAYLFGPSIDDYPAFYYDYGYWGQGTQVTVSS”, the “polyreactivity (PSR sort gate)” value is “low polyreactivity”.

On to “QVQLVDSGGGLVQAGGSLRLSCAASGSTFYYNAMGWYRQAPGKERELVARISRSGGSTYADSVKGRFTISRDNAKNTFYLQMNSLKPEDTAVYYCNADAYGTPEFTSYAVCYDYWGQGTQVTVSS”, for which the “polyreactivity (PSR sort gate)” value is “low polyreactivity”.

In the case of “QVQLVDSGGGLVQAGGSLRLSCAASGSTFYYNAMGWYRQAPGKERELVARISRSGGSTYADSVKGRFTISRDNAKNTVYLQMNSMKPEDTAVYYCNAVAYGTPEFTSYAVRYDYWGQGTQVTVSS”, the “polyreactivity (PSR sort gate)” value was “low polyreactivity”.

Regarding “QVQLVDSGGGLVQAGGSLRLSCAASGSTRRGYAMGWYRQAPGKERELVASISRRGGSTYYADSVKGRFTISRDNAKNTVYLQMKSLKTEVTAVYYCAATGRRGYGYGYWGQGTQVTVSS”, the “polyreactivity (PSR sort gate)” value is “high polyreactivity”.

Consider “QVQLVDSGGGLVQAGGSLRLSCAASGTTFYSYAMGWYRQAPGKERELVAAISSSGDSTYYADSVKGRFTISRDNAKNTVYLQMNSLKPEDTAVYYCAARKGELWFPQGGYNYWGQGTQVTVLS”, for which the “polyreactivity (PSR sort gate)” value was “low polyreactivity”.

“QVQLVDSGGGLVQAGGSLRLSCAASGYTFEAYAMGWYRQAPGKERELVAAINYSGGSTYADSVKGRFTISRDNAKNTVYLQMNSLKPEDTAVYYCATRLYGYWPYGFDYWGQGTQVTVSS”: the “polyreactivity (PSR sort gate)” value is listed as “low polyreactivity”.

In the case of “QVQLVDSGGGLVQAGGSLRLSCAAYGSIFKYYCMGWYRQAPGKERELVATISKRGGSTYYADSVKGRFTISRDNAKNSVYLQMNSLKPEDTAVYYCAKDSPALRPLTWQQLYDFWGQGTQVTVSS”, the “polyreactivity (PSR sort gate)” value was “high polyreactivity”.

“QVQLVDSGGGLVQAGGSLRLSCAAYGSNLYYAMGWYIQAPGKERELVATITRGGSTYYADSVKGRFTISRDNAKNTVYLQMNSLKPEDTAVYYCAARRAVRVGYYWHDISSYDYWGQGTQVTVSS”: the “polyreactivity (PSR sort gate)” value is reported as “low polyreactivity”.

As to “QVQLVDSGGGLVQAGGSLRLSCAAYGSTDKPNAMGWYRQAPGKQRELVAANSGSGGSTYYADTVKGRFTISRDNAKNTVYLQMNSLKPEDTAVYYCAAKRTGNGYPRSGYSRYEYWGQGTQVTVSS”, the “polyreactivity (PSR sort gate)” value is given as “high polyreactivity”.

For the sequence “QVQLVDSGGGLVQAGGSLRLSCADSGFTFSWNVMGRYRQAPGKEREYVAAISTSYGGRYYADSVKGRFTISRDNAKNTVDLQMNSLKPEDTAVYYCNDDIVGFQWGYDYWGQGTQVTVSA”, the “polyreactivity (PSR sort gate)” value was “low polyreactivity”.

As for “QVQLVDSGGGLVQAGGSLRLSCPASGSTFQRYAMGWYRQAPGKERELVAAISSSGVRTYYADSVKGRFTISRDNAKNTVYLQMNSLKPEDTAVYYCATGYIFRYRQSAYDYWGQGTQVTVSS”, the “polyreactivity (PSR sort gate)” value is reported as “high polyreactivity”.

As to “QVQLVDSGGGLVQAGGSLRLSCSASGIIIKWYTMVWYRQAPGKEREFVAAISYGGGSTSYADSVKGRFTISRDNAKNTVYLQMNSLKPEDTAVYYCAVVWQGAYSRTNYYYWGQGTQVTVSS”, the “polyreactivity (PSR sort gate)” value is on record as “low polyreactivity”.

For the sequence “QVQLVDSGGGLVQAGGSLRLSCSASGSTFSVYAMGWYRQAPGKERELVAAITSGGSTNYADSVKGRFTISRDNAKNTVYLQMNSLKPEDTAVFYCNAYYVLIGYQPHWGYYWGQGTQVTVSS”, the “polyreactivity (PSR sort gate)” value was “low polyreactivity”.

In the case of “QVQLVDSGGGLVQAGGSLRLSCSASGYNFIGYAMGWYRQAPGKERELVATITSGGSTNYADSVKGRFTISRDNAKNTVYLQMNSLNPEDTAVYYCAAGRGRYFYSWRYLYAIFDYWGQGTQVTVSS”, the “polyreactivity (PSR sort gate)” value was “low polyreactivity”.

As to “QVQLVDSGGGLVQAGGSLRLTCAASGRIFYYNPMGWNRQAPGIVRELVDAINMISGSTYYADSVKGRFTISRDNAKNSVYFQMNSLKPEDTAVYYCAAQGVDTRIFFSFGFDYWGQGTQVNVSS”, the “polyreactivity (PSR sort gate)” value is reported as “high polyreactivity”.

As for “QVQLVDSGGGLVQAGGSLRVSCAASGNTFVTNAMGWSRQAPGKERELDAAITASVTSTYYADSVKGRFTISRDNAKITVYLQLNSLKPEDPAVYYCAAKTYSRKRVRMDYWGQGTQVTVSS”, the “polyreactivity (PSR sort gate)” value was “high polyreactivity”.

As for “QVQLVDSGGGLVQAGGSLRVSCAASGSILPLNAMGWYRQGPGKERELVADISWSGGDTYYADSVKGRFTISRDNAKNTVYLQMNSLKPEDTSVYYCAADLHTELYKMDYWGQGTQVTVSS”, the “polyreactivity (PSR sort gate)” value is “low polyreactivity”.

“QVQLVDSGGGLVQAGGSRRVSCAASAFTFLWNAMGWYRQAPGKEREMVAAINGNSGNTYYADSVKGRFTLSVDNAKNTVYLQMNSMKAEDTAVYYCAKQGNNIPCYRPYGDYYYWGQGTQVTVSS”: the “polyreactivity (PSR sort gate)” value is “low polyreactivity”.

In the case of “QVQLVDSGGGLVQAGGTLRLSCAASGRTIYRNDMGWYRQAPGQERELVAAITSSGGTTYADSVKGRFTISRDNAKNTGYLQMNSLKPEDTAVYYCAAVYAYPNIYDYWGQGTQVTVSS”, the “polyreactivity (PSR sort gate)” value is recorded as “low polyreactivity”.

With “QVQLVDSGGGLVQAGVSLRLSCAASGFTFVFYAMGWYRQAPGKERELVAAISGRGGSTYYADSVKGRFTISRDNAKNTVYLQMNSLKPEDTAVYYCNALYVYRSVANFDYWGQGTQVTVSS”, the “polyreactivity (PSR sort gate)” value was “high polyreactivity”.

As to “QVQLVDSGGGLVQAVGSLRLSCAASGGIFVPNAMGWYRQAHGKVRELVAAIYYSGGRTYYADSVKGSFTISRDNAKNTVYLQMNRLKPEDTAVYYCAAEYWFVFHHYNYFGQGTQVTVSS”, the “polyreactivity (PSR sort gate)” value is “high polyreactivity”.

Turning to “QVQLVDSGGGLVQAVGSLRLSCAASGITFDEYAMGWYRQAPGKERELVAAISVSGGDTYYADSVKGRFTISRDNAKNNVYLQMNSLKPEDTAVYYCNARWGTPYYIQDFDYWGLGTQVTVSS”, the “polyreactivity (PSR sort gate)” value was “low polyreactivity”.

Turning to “QVQLVDSGGGVVQAGGSLRLSCPASGIILRRYAMGWYRQAQGKERELVARISYRGGRTNYADSVKGRFTISRDNAKNTVYLQMNSLKPEDTAVYYCAAVAWDYHEGTAYNYWGQGTQVTVSS”, the “polyreactivity (PSR sort gate)” value is “high polyreactivity”.

Take “QVQLVDSGGGVVQEGGSLRLSCAASGIISLFNVMGWYRQAPGKERELVASITGRGGSTFYADSVKGRFTISRDNAKNTVYLQMNSLQPEESGVYYCATDTGDTYPVNGLYDYWGHGTQVTVSS”: the “polyreactivity (PSR sort gate)” value is on record as “low polyreactivity”.

On to “QVQLVDSGGRLVQAGGSLRLSCAASGFIFGTNAMGWYRQAPGKERELVASISSTGGSTYYADSVKGRCTISRDNAKNTVYLQMNILKPEETAVYYCAADPYPEYIRYLPGVDYSGQGTQVTVSS”, for which the “polyreactivity (PSR sort gate)” value was “low polyreactivity”.

As to “QVQLVDSGGVLVQAGGSLRLICAASGNTFAYYTLGWYRQAPGKEMELVAAIDYSGGSTYYADSVKGRFTISRDNAKNTVYLQMNSLKPEDTAVYYCASDYRWHFSESLGWFYEYGYWGQGTQVTVSS”, the “polyreactivity (PSR sort gate)” value was “low polyreactivity”.

With “QVQLVDSRGGLVQAGGSLRLSCAASGIIFGYYAMGWYRQAPGKERELVAAITWSGGSTYYADSVKGSFTISRDNAKNTVYLQMNSLKPEDTAVYYCAASAYVQPYDYWGQGTQVTVSS”, the “polyreactivity (PSR sort gate)” value was “high polyreactivity”.

With “QVQLVDSRGGLVQAGGSLRLSCAASGSTYLRNVMGSYRQAPGKERELVAAISSRGGSTHYADSVKGRFTISRDNAKNTVYLQMNSMKPEDTAVYYSNAERTAAQYVRAAYDFWGEGTQVTVSS”, the “polyreactivity (PSR sort gate)” value is reported as “low polyreactivity”.

Take “QVQLVDSRRGLVQAGGSLRLSCAASGRIFGYNAMGWYREAPGKVRELVAAISSGGGTNYADSVKGRFTISRDNAKNPVYLQMHSLKPEDTAVYYCAVRRRRYHTYYRGYDYWGQGTQVTVSS”: the “polyreactivity (PSR sort gate)” value is given as “low polyreactivity”.

“QVQLVDSVGGLVQAGGSLPLICAASGSTFGNYAKGWYRQAPGKERELVAAINSGDSTSYADSVKGRFTISRDNANNTVYLHMNSLKPEDTAVYYCSVRPRRNQYGYWGQGTQLTVSS”: the “polyreactivity (PSR sort gate)” value is “low polyreactivity”.

Turning to “QVQLVDSVGGLVQAGGSLRLSCAASGSTFVYNTMGWYRQEPGKEREMVAAISYRGSTYYADSVKGRFTISRENAKNTVFLQMNSLKPEDNAVYYCNAPRRQYEYDYWGQGTQVTVSS”, the “polyreactivity (PSR sort gate)” value was “high polyreactivity”.

For the sequence “QVQLVDTGGGLVQAGGSLRLSCAASGITFYFYVMGWYRQAPGKERELVADISTSDDSTYYADSVKGRFTISRDNAKNTVYLQMNSLKPEDTAVYYCATATRTYSAWYEYVYWGQGTQVTVSS”, the “polyreactivity (PSR sort gate)” value is “low polyreactivity”.

Regarding “QVQLVEAGGGLDQPGGSLRLSCAASGSTFYVNTRRWYIQAPGQELELVAAISSTGSSTYFADSVKGRFTISRDNAKNTVYLQMNSLKPEDTAVYYCAAESYRWWYLYDYYYWGQGTQVTVSS”, the “polyreactivity (PSR sort gate)” value is given as “high polyreactivity”.

For the sequence “QVQLVEAGGGLVQAGGSLRLSCAASAFTFSPTAMGWYRQAPGKERELGAAIDWSGDRTYYADSVKGRFTISRAHAKNTVYLQMNSLKPEDTGVYYCNVVRRSPGDYSYYYWGQGSQVTVSS”, the “polyreactivity (PSR sort gate)” value was “low polyreactivity”.

As to “QVQLVEAGGGLVQAGGSLRLSCAASGFIFPSYVRGWYSQAPGKERELVATISRSGGSTYYADSVKGRFTISRDNAKNTGYLQMNSLKPEDTAVYYCATRRRGPYSPYSPYDYWGQGTQVTVSS”, the “polyreactivity (PSR sort gate)” value was “high polyreactivity”.

Take “QVQLVEAGGGLVQAGGSLRLSCAASGFILENYAMGWNRQAPGKERELVAAISGSGGTTYYADSVKGRFTISRDNAKNTVYLQMNSLKPEDTAVYYCNRDRLLRQYDYWGQGTQVTVSS”: the “polyreactivity (PSR sort gate)” value is “high polyreactivity”.

In the case of “QVQLVEAGGGLVQAGGSLRLSCAASGGTFNSNAMGWYRQAPGKERELGASITWRGGTYYADSVKGRFTISRDNAKNTVYLQMNSLKPEDTAVYYCAARGTIPGIHWIYYYWGQGTQVTVSS”, the “polyreactivity (PSR sort gate)” value is reported as “high polyreactivity”.

With “QVQLVEAGGGLVQAGGSLRLSCAASGIIFYLYTMGWYRPAPGKERELVAAISSSDGSTYYADSVKGRFTISRDNAKNTVYLQMNSLKPEDTAVYYCAAEYRGYLDDYYYWGQGTQVTVSS”, the “polyreactivity (PSR sort gate)” value was “high polyreactivity”.
